Assay results from patent US20200048649A1 (CENTRE NATIONAL DE LA RECHERCHE SCIENTIFIQUE, published 2020).

Assays:
[1] = target: T1, Grapevine fanleaf virus (GFLV) isolate F13 particles (capsid made of the coat protein, CP) (Grapevine fanleaf virus isolate F13, UniProt P18474 606-1109)
T1 sequence: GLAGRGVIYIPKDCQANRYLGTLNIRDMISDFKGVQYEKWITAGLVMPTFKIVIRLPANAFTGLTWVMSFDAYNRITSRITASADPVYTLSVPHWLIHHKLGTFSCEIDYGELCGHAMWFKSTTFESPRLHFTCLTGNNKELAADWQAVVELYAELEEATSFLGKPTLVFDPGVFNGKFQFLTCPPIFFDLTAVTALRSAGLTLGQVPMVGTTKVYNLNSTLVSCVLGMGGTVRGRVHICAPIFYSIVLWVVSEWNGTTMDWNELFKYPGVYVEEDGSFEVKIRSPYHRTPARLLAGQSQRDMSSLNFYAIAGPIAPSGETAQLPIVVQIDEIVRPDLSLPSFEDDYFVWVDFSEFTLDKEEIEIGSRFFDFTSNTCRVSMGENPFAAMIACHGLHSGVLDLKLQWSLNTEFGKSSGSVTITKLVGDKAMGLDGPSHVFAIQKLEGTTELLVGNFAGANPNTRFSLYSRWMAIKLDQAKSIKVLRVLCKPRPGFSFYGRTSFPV

[2] = target: T1, Grapevine fanleaf virus (GFLV) isolate …; assay: DAS-ELISA on infected leaves, capture by Ab BIOREBA, detection by Nb:ALP
[3] = target: T2, TRCP VLP (virus-like particle of GFLV CP fused at its N-terminus to TagRFP) (Grapevine fanleaf virus isolate F13 (CP …)); assay: dynamic light scattering; TRCP VLP alone 32.0 nm±2 nm
T2 construct: also called TRCP VLPs; VLP-TRCP

[4] = target: T2, TRCP VLP (virus-like particle of GFLV …); assay: microscale thermophoresis in solution, fluorescent TRCP VLP constant, nanobody titrated, 1:1 model, n=3; SD ±2.91
[5] = target: T2, TRCP VLP (virus-like particle of GFLV …); assay: microscale thermophoresis in solution, fluorescent TRCP VLP constant, nanobody titrated, 1:1 model, n=3; SD ±3.37
[6] = target: T2, TRCP VLP (virus-like particle of GFLV …); assay: microscale thermophoresis in solution, fluorescent TRCP VLP constant, nanobody titrated, 1:1 model, n=3; SD ±13.63
[7] = target: T1, Grapevine fanleaf virus (GFLV) isolate …; assay: competitive ELISA on coated GFLV, legend of FIG. 19a
[8] = target: T1, Grapevine fanleaf virus (GFLV) isolate …; assay: DAS-ELISA on infected leaves, capture Ab Bioreba, detection Nbp75:ALP

B1: Nb122 fused to alkaline phosphatase (VHH)
chain: MAQVQLQESGGGSVQGGGSLRLSCAVSGYRFSSYAMAWFRQAPGKEREAVAAYYRGFGGAQHSTHYAASVTGRFTITQNDALNTGYLQMNNLKPEDTAMYYCALSTADDDDWHSLRRYNYWGQGTQVTVSSGGGSGGGVKQSTIALALLPLLFTPVTKARTPEMPLQTQATSREEPPRLPSKHRPGVKTQATSREEPPRLPSKHRPGVKTQATSREEPPRLPSKHRPGVKTQATSREEPPRLPSKHRPGVKTQATSLEVLENRAAQGDITAPGGARRLTGDQTAALRDSLSDKPAKNIILLIGDGMGDSEITAARNYAEGAGGFFKGIDALPLTGQYTHYALNKKTGKPDYVTDSAASATAWSTGVKTYNGALGVDIHEKDHPTILEMAKAAGLATGNVSTAELQDATPAALVAHVTSRKCYGPSATSEKCPGNALEKGGKGSITEQLLNARADVTLGGGAKTFAETATAGEWQGKTLREQAQARGYQLVSDAASLNSVTEANQQKPLLGLFADGNMPVRWLGPKATYHGNIDKPAVTCTPNPQRNDSVPTLAQMTDKAIELLSKNEKGFFLQVEGASIDKQDHAANPCGQIGETVDLDEAVQRALEFAKKEGNTLVIVTADHAHASQIVAPDTKAPGLTQALNTKDGAVMVMSYGNSEEDSQEHTGSQLRIAAYGPHAAHHHHHH
- EC50 (read off the curve) [1]: ~0.01 mM

B2: Nbp59 fused to alkaline phosphatase (VHH)
VHH: QVQLQESGGGTVQAGGSLRLSCSISGDTSNSYCMGWFRQAPGKEREVVAHISTGVISPGYNKFSEGRFTISPDNAKNSVYLQMNNLKPDDTAMYYCAARTGYCSGSWGVADSFNGWGQGTQVTVSS
- binding result [2]: binds

B3: Nanobody Nb23 (VHH)
VHH: QVQLQESGGGSVQVGGSLRVACAASGDTFSGYLAAWFRQAPGKGREGVAAINSKRHTTSYADSVKGRFTISKDNADNIMYLEMNSLKPEDTAIYYCAAADAIGLAEYWSTPTLSAARYKYWGQGTQVTVSS
- particle diameter of the VLP saturated with the nanobody (DLS) [3]: 37.8 nm
- Kd [4]: 9.13 nM

B4: Nanobody Nbp59 (VHH)
VHH: QVQLQESGGGTVQAGGSLRLSCSISGDTSNSYCMGWFRQAPGKEREVVAHISTGVISPGYNKFSEGRFTISPDNAKNSVYLQMNNLKPDDTAMYYCAARTGYCSGSWGVADSFNGWGQGTQVTVSS
- Kd [5]: 12.6 nM

B5: Nanobody Nb122 (VHH)
VHH: QVQLQESGGGSVQGGGSLRLSCAVSGYRFSSYAMAWFRQAPGKEREAVAAYYRGFGGAQHSTHYAASVTGRFTITQNDALNTGYLQMNNLKPEDTAMYYCALSTADDDDWHSLRRYNYWGQGTQVTVSS
- Kd [6]: 34.5 nM

B6: Strep-tagged Nbp75 (VHH)
VHH: QVQLQESGGGSVQAGGSLRLSCVASEYPSSSTAMAWFRQAPGKEREGVAAINSVRHTTSYADSVKGRFTISKDNADNMMYLEMNSLKPEDTAIYYCAAADAIGLAEYWSTPTLSAARYKYWGQGTQVTVSS
- binding result [7]: binds

B7: Strep-tagged Nbp59 (VHH)
VHH: QVQLQESGGGTVQAGGSLRLSCSISGDTSNSYCMGWFRQAPGKEREVVAHISTGVISPGYNKFSEGRFTISPDNAKNSVYLQMNNLKPDDTAMYYCAARTGYCSGSWGVADSFNGWGQGTQVTVSS
- binding result [7]: binds

B8: Strep-tagged Nb125 (VHH)
VHH: QVQLQESGGGSVQAGGSLRLSCAASGYTYSMYCMAWFRQAPGKEREGVAAINSGNRSTYYADSVKGRFTISQDNAKNTVYLIMNSLKPEDTAIYYCAADPQRCGSWTWANMYEYNYWGQGTQVTVSS
- binding result [7]: binds

B9: Strep-tagged Nb122 (VHH)
VHH: QVQLQESGGGSVQGGGSLRLSCAVSGYRFSSYAMAWFRQAPGKEREAVAAYYRGFGGAQHSTHYAASVTGRFTITQNDALNTGYLQMNNLKPEDTAMYYCALSTADDDDWHSLRRYNYWGQGTQVTVSS
- binding result [7]: binds

B10: Nb23 fused to EGFP (VHH)
VHH: QVQLQESGGGSVQVGGSLRVACAASGDTFSGYLAAWFRQAPGKGREGVAAINSKRHTTSYADSVKGRFTISKDNADNIMYLEMNSLKPEDTAIYYCAAADAIGLAEYWSTPTLSAARYKYWGQGTQVTVSS
- particle diameter of the VLP saturated with the nanobody (DLS) [3]: 43.8 nm

B11: Nbp75 fused to alkaline phosphatase (VHH)
VHH: QVQLQESGGGSVQAGGSLRLSCVASEYPSSSTAMAWFRQAPGKEREGVAAINSVRHTTSYADSVKGRFTISKDNADNMMYLEMNSLKPEDTAIYYCAAADAIGLAEYWSTPTLSAARYKYWGQGTQVTVSS
- binding result [8]: binds

B12: Nb23 fused to bacterial alkaline phosphatase (VHH)
chain: QVQLQESGGGSVQVGGSLRVACAASGDTFSGYLAAWFRQAPGKGREGVAAINSKRHTTSYADSVKGRFTISKDNADNIMYLEMNSLKPEDTAIYYCAAADAIGLAEYWSTPTLSAARYKYWGQGTQVTVSSGGGSGGGVKQSTIALALLPLLFTPVTKARTPEMPLQTQATSREEPPRLPSKHRPGVKTQATSREEPPRLPSKHRPGVKTQATSREEPPRLPSKHRPGVKTQATSREEPPRLPSKHRPGVKTQATSLEVLENRAAQGDITAPGGARRLTGDQTAALRDSLSDKPAKNIILLIGDGMGDSEITAARNYAEGAGGFFKGIDALPLTGQYTHYALNKKTGKPDYVTDSAASATAWSTGVKTYNGALGVDIHEKDHPTILEMAKAAGLATGNVSTAELQDATPAALVAHVTSRKCYGPSATSEKCPGNALEKGGKGSITEQLLNARADVTLGGGAKTFAETATAGEWQGKTLREQAQARGYQLVSDAASLNSVTEANQQKPLLGLFADGNMPVRWLGPKATYHGNIDKPAVTCTPNPQRNDSVPTLAQMTDKAIELLSKNEKGFFLQVEGASIDKQDHAANPCGQIGETVDLDEAVQRALEFAKKEGNTLVIVTADHAHASQIVAPDTKAPGLTQALNTKDGAVMVMSYGNSEEDSQEHTGSQLRIAAYGPHAAHHHHHH
- particle diameter of the VLP saturated with the nanobody (DLS) [3]: 40 nm
